US20130224190A1 (INTERNATIONAL DRUG DEVELOPMENT BIOTECH, published 2013)
Substitutions are numbered along the chain they refer to. Names and notes keep the numbering of the source.

Target: T1, human C1q (human, UniProt P02745 23-245; P02746 28-253; P02747 29-245)
T1 construct: The assay used recombinant human C1q (Abd Serotec, 0.2 ug/ml) or C1q from natural human complement (Sigma); It was detected with sheep anti-human C1q-peroxidase on plates coated with the MAb; also called recombinant human C1q; human complement
Experiment: ELISA, C1q on coated MAb
Experimental: The binding of human recombinant C1q was assessed by an ELISA binding assay. […] Data represent mean+/−SD of two independent experiments.
Complement binding assay: The binding of human C1q to MAbs was assessed by an ELISA binding assay. The 96-well plates (Nunc) were coated overnight at 4° C. with varying MAb concentrations. After washing, the plates were blocked with PBS-5% BSA for 1 h, and incubated for 1 h with 0.2 μg/ml of recombinant human C1q (Abd Serotec) or 2.5 μl of natural human complement (Sigma). Then, 100 μl of a 1/500 dilution of sheep anti-human C1q peroxidase-conjugated Ab (Abd Serotec) added and incubated for 1 h. The plates were developed with 100 μl per well of TMB substrate (Uptima Interchim). After H₂S0₄ addition, the OD was measured at 450 nm/630 nm using a MRX II microplate reader.

T1 sequence (P02745 23-245 limits assumed, chain 1 of 3): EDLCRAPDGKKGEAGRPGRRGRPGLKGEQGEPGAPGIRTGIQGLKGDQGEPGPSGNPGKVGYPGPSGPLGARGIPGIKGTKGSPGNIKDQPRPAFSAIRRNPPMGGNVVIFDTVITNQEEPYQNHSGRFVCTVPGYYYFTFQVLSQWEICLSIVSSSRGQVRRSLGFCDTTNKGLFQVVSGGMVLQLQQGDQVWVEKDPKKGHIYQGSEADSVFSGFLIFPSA
T1 sequence (P02746 28-253 limits assumed, chain 2 of 3): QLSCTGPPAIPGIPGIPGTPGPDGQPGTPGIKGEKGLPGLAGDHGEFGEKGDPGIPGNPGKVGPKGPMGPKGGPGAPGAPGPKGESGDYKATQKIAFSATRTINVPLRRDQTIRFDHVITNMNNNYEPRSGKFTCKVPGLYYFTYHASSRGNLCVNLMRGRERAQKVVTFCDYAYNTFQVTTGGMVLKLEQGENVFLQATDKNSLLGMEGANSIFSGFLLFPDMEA
T1 sequence (P02747 29-245 limits assumed, chain 3 of 3): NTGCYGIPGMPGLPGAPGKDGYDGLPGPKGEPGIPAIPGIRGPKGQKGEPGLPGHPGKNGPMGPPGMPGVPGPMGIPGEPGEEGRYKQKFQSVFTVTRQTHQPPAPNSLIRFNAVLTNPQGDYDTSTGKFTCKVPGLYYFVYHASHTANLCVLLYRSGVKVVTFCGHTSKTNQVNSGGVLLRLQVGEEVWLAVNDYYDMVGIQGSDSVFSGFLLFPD

B1: chR005-1 Fc24 (antibody)
heavy: QVQLQQSGAELVRPGSSVKISCKASGYAFSSYWVNWMKQRPGQGLEWIGQIYPGDGDTNYNGKFKGRATVTADKSSSTSYMQFSSLTSEDSAVYFCARSITTVVGCAMDYWGQGTSVTVSSASTKGPSVFPLAPSSKSTSGGTAALGCLVKDYFPEPVTVSWNSGALTSGVHTFPAVLQSSGLYSLSSVVTVPSSSLGTQTYICNVNHKPSNTKVDKKVEPKSCDKTHTCPPCPAPELLGGPSVFLLPPKPKDTLMISRTPEVTCVVVDVSHEDPEVKFNWYVDGVEVHNAKTKPPEEQYNSTLRVVSLLTVLHQDWLNGKEYKCKVSNAALPAPIAKTISKAKGQPREPQVYTLPPSRDELTKNQVSLTCLVKGFYPSDIAVEWESNGQPENNYKTTPLVLDSDGSFFLYSKLTVDKSRWQQGNVFSCSVMHEALHNHYTQKSLSLSPGK
light: DIQMTQSSAYLSVSLGGRVTITCKASDHINNWLAWYQHKPGNAPRLLISGATTLETGVPSRFSGSGSGKDYTLSITSLQTEDVATYYCQQSWNTPWTFGGGTK
notes: Chimeric human IgG1 with variant Fc24 (F243L/R292P/Y300L/V305L/K326A/E333A/P396L against Fc0); also called chR005-1 Fc24 MAb; Fc24 optimized chR005-1 MAb; not shown: human light chain constant region
  binding result: binds

B2: chR005-1 Fc34 (antibody)
heavy: B1 heavy with A337E
light: B1 light
notes: Chimeric human IgG1 with variant Fc34 (F243L/R292P/Y300L/V305L/K326A/P396L against Fc0); also called chR005-1 Fc34 MAb; Fc34 LPLLAL; not shown: human light chain constant region
  binding result: binds
